According to paper PMC2577335:

What was measured:
Assay in all cases: equilibrium binding isotherms of eEF2 on ribosomes
[1] = biological target: wild-type yeast ribosomes (salt-washed), with wild-type ribosomal protein L3 (S. cerevisiae) (UniProt P14126)
[2] = biological target: yeast ribosomes (salt-washed) with ribosomal protein L3 mutant S2A (S. cerevisiae) (UniProt P14126)
[3] = biological target: yeast ribosomes (salt-washed) with ribosomal protein L3 mutant S2K (S. cerevisiae) (UniProt P14126)
[4] = biological target: yeast ribosomes (salt-washed) with ribosomal protein L3 mutant S2T (S. cerevisiae) (UniProt P14126)

Kd [1]: 18.7 nM | Kd [2]: 19.9 nM | Kd [3]: 20.4 nM | Kd [4]: 20.7 nM
Substance: 6 × His-tagged eEF2 (elongation factor 2) (from UniProt P32324 1-842) (natural protein)
